Several values for one entry are separate records, joined by “and”; a condition that tells them apart may be missing. Equal values may be shown once.
Key:
Test in all cases: SEC
[1] = target: DEBS3M5 KS0-AT didomain, wild type (6-deoxyerythronolide B synthase module 5, KS knockout) (Saccharopolyspora erythraea)
[2] = target: RAPS3M14 KS0-AT didomain (rapamycin synthase module 14) (Streptomyces hygroscopicus)
[3] = target: DEBS3M5 KS0-AT R850A (Saccharopolyspora erythraea)
[4] = target: DEBS3M5 KS0-AT A539E (Saccharopolyspora erythraea)
[5] = target: DEBS3M5 KS0-AT R850S (Saccharopolyspora erythraea)
[6] = target: DEBS3M5 KS0-AT A539F (Saccharopolyspora erythraea)
[7] = target: Pks7 KS0-AT didomain (Saccharopolyspora erythraea)
[8] = target: DEBS3M5 KS0-AT A539D (Saccharopolyspora erythraea)
[9] = target: DEBS3M5 KS0-AT A539S (Saccharopolyspora erythraea)
[10] = target: PikAIIIM5 KS0-AT didomain (pikromycin synthase module 5) (Streptomyces venezuelae)
[11] = target: DEBS3M5 KS0-AT R850E (Saccharopolyspora erythraea)
[12] = target: DEBS3M5 KS0-AT R850F (Saccharopolyspora erythraea)
[13] = target: DEBS3M5 KS0-AT R850K (Saccharopolyspora erythraea)

DEBS3M5 KS0-AT didomain, wild type (6-deoxyerythronolide B synthase module 5, KS knockout) (domain or fragment)
stoichiometry N [1]: 4 and 2

RAPS3M14 KS0-AT didomain (rapamycin synthase module 14) (domain or fragment)
stoichiometry N [2]: 4

DEBS3M5 KS0-AT R850A (domain or fragment)
stoichiometry N [3]: 4 and 2

DEBS3M5 KS0-AT A539E (domain or fragment)
stoichiometry N [4]: 4 and 2

DEBS3M5 KS0-AT R850S (domain or fragment)
stoichiometry N [5]: 4 and 2

DEBS3M5 KS0-AT A539F (domain or fragment)
stoichiometry N [6]: 4 and 2

Pks7 KS0-AT didomain (domain or fragment)
stoichiometry N [7]: 2

DEBS3M5 KS0-AT A539D (domain or fragment)
stoichiometry N [8]: 4 and 2

DEBS3M5 KS0-AT A539S (domain or fragment)
stoichiometry N [9]: 4 and 2

PikAIIIM5 KS0-AT didomain (pikromycin synthase module 5) (domain or fragment)
stoichiometry N [10]: 2

DEBS3M5 KS0-AT R850E (domain or fragment)
stoichiometry N [11]: 4 and 2

DEBS3M5 KS0-AT R850F (domain or fragment)
stoichiometry N [12]: 4 and 2

DEBS3M5 KS0-AT R850K (domain or fragment)
stoichiometry N [13]: 4 and 2
